{
  "source": "paper PMC3694306",
  "key": {"[1]": {"target": "EssB (full-length, membrane-bound, Geobacillus thermodenitrificans NG80-2) (Geobacillus thermodenitrificans NG80-2)", "test": "SEC; detergent-solubilised membrane-bound protein; Superdex200 HR 30/100 GL, buffers with 0.02% DDM and 1 ug/ml DOPC"}, "[2]": {"target": "EssB-C (C-terminal extracytosolic fragment of EssB, Ala241 to Lys428) (Geobacillus thermodenitrificans NG80-2)", "test": "crystal structure; EssB-C, tetragonal P4(3)2(1)2, two molecules in the asymmetric unit, 2.1 M malate pH 7.0, 3.2 Å; dimer made by crystallographic symmetry"}, "[3]": {"target": "EssB-C (C-terminal extracytosolic fragment of EssB, Ala241 to Lys428) (Geobacillus thermodenitrificans NG80-2)", "test": "SEC; soluble fragments; Superdex75 prep grade HR 16/60, buffer C (10 mM sodium phosphate pH 7.8, 20 mM NaCl, 0.5 mM TCEP), column calibrated with molecular mass standards"}, "[4]": {"target": "EssB-C^Δ (C-terminally truncated extracytosolic fragment of EssB, Ala241 to Gln397) (Geobacillus thermodenitrificans NG80-2)", "test": "crystal structure; EssB-C^Δ, monoclinic C2, four molecules in the asymmetric unit, 3.0 M malonate pH 7.0, 10 mM ZnCl2, 2.4 Å; dimer made by crystallographic symmetry"}, "[5]": {"target": "EssB-C^Δ (C-terminally truncated extracytosolic fragment of EssB, Ala241 to Gln397) (Geobacillus thermodenitrificans NG80-2)", "test": "SEC; soluble fragments; Superdex75 prep grade HR 16/60, buffer C (10 mM sodium phosphate pH 7.8, 20 mM NaCl, 0.5 mM TCEP), column calibrated with molecular mass standards"}, "[6]": {"target": "EssB-N (N-terminal, predicted cytoplasmic fragment of EssB, Ser2 to Asp214) (Geobacillus thermodenitrificans NG80-2)", "test": "native gel or EMSA; blue native PAGE, linear 4-16% gradient Native Bis-Tris gel, 3 ug purified EssB-N"}, "[7]": {"target": "EssB-N (N-terminal, predicted cytoplasmic fragment of EssB, Ser2 to Asp214) (Geobacillus thermodenitrificans NG80-2)", "test": "SEC; EssB-N (2 mg) in various test buffers with 0.5% TCEP and 10% glycerol (Tris-HCl pH 7.8 with 20 mM NaCl, with or without 5 mM EDTA; phosphate pH 7.8 or Bis-Tris pH 5.5 with 300 mM NaCl), 30 min at room temperature, Superdex75 HR 30/100 GL"}, "[8]": {"target": "EssB-N (N-terminal, predicted cytoplasmic fragment of EssB, Ser2 to Asp214) (Geobacillus thermodenitrificans NG80-2)", "test": "SEC; EssB-N (2 mg) in 100 mM citrate pH 5.5, 300 mM NaCl, 0.5% TCEP, 10% glycerol, 30 min at room temperature, Superdex75 HR 30/100 GL"}, "[9]": {"target": "EssB-N D54C (cysteine-free template C48S, C108S, C171S), MTSSL spin-labelled (Geobacillus thermodenitrificans NG80-2)", "test": "SEC; EssB-N cysteine mutants before and after MTSSL labelling (data not shown)"}, "[10]": {"target": "EssB-N D54C (cysteine-free template C48S, C108S, C171S), before MTSSL labelling (Geobacillus thermodenitrificans NG80-2)", "test": "SEC; EssB-N cysteine mutants before and after MTSSL labelling (data not shown)"}, "[11]": {"target": "EssB^Δ (membrane-bound EssB truncated by 31 C-terminal residues) (Geobacillus thermodenitrificans NG80-2)", "test": "SEC; detergent-solubilised membrane-bound protein; Superdex200 HR 30/100 GL, buffers with 0.02% DDM and 1 ug/ml DOPC"}, "[12]": {"target": "EssB^Δ D54C (cysteine-free template C48S, C108S, C171S), MTSSL spin-labelled (Geobacillus thermodenitrificans NG80-2)", "test": "SEC; detergent-solubilised membrane-bound protein; Superdex200 HR 30/100 GL, buffers with 0.02% DDM and 1 ug/ml DOPC"}, "[13]": {"target": "EssB^Δ E59C (cysteine-free template C48S, C108S, C171S), MTSSL spin-labelled (Geobacillus thermodenitrificans NG80-2)", "test": "SEC; detergent-solubilised membrane-bound protein; Superdex200 HR 30/100 GL, buffers with 0.02% DDM and 1 ug/ml DOPC"}, "[14]": {"target": "EssB^Δ E139C (cysteine-free template C48S, C108S, C171S), MTSSL spin-labelled (Geobacillus thermodenitrificans NG80-2)", "test": "SEC; detergent-solubilised membrane-bound protein; Superdex200 HR 30/100 GL, buffers with 0.02% DDM and 1 ug/ml DOPC"}, "[15]": {"target": "EssB^Δ E197C (cysteine-free template C48S, C108S, C171S), MTSSL spin-labelled (Geobacillus thermodenitrificans NG80-2)", "test": "SEC; detergent-solubilised membrane-bound protein; Superdex200 HR 30/100 GL, buffers with 0.02% DDM and 1 ug/ml DOPC"}, "[16]": {"target": "EssB^Δ E273C (cysteine-free template C48S, C108S, C171S), MTSSL spin-labelled (Geobacillus thermodenitrificans NG80-2)", "test": "SEC; detergent-solubilised membrane-bound protein; Superdex200 HR 30/100 GL, buffers with 0.02% DDM and 1 ug/ml DOPC"}, "[17]": {"target": "EssB^Δ N115C (cysteine-free template C48S, C108S, C171S), MTSSL spin-labelled (Geobacillus thermodenitrificans NG80-2)", "test": "SEC; detergent-solubilised membrane-bound protein; Superdex200 HR 30/100 GL, buffers with 0.02% DDM and 1 ug/ml DOPC"}, "[18]": {"target": "EssB^Δ R86C (cysteine-free template C48S, C108S, C171S), MTSSL spin-labelled (Geobacillus thermodenitrificans NG80-2)", "test": "SEC; detergent-solubilised membrane-bound protein; Superdex200 HR 30/100 GL, buffers with 0.02% DDM and 1 ug/ml DOPC"}, "[19]": {"target": "EssB^Δ S93C (cysteine-free template C48S, C108S, C171S), MTSSL spin-labelled (Geobacillus thermodenitrificans NG80-2)", "test": "SEC; detergent-solubilised membrane-bound protein; Superdex200 HR 30/100 GL, buffers with 0.02% DDM and 1 ug/ml DOPC"}},
  "data": [
    {"substance": "EssB (full-length, membrane-bound, Geobacillus thermodenitrificans NG80-2) (natural protein)", "values": [
      {"measurement": "stoichiometry N", "setting": "[1]", "result": 2}
    ]},
    {"substance": "EssB-C (C-terminal extracytosolic fragment of EssB, Ala241 to Lys428) (domain or fragment)", "values": [
      {"measurement": "stoichiometry N", "setting": "[2]", "result": 2},
      {"measurement": "stoichiometry N", "setting": "[3]", "result": 2}
    ]},
    {"substance": "EssB-C^Δ (C-terminally truncated extracytosolic fragment of EssB, Ala241 to Gln397) (domain or fragment)", "values": [
      {"measurement": "stoichiometry N", "setting": "[4]", "result": 2},
      {"measurement": "stoichiometry N", "setting": "[5]", "result": 2}
    ]},
    {"substance": "EssB-N (N-terminal, predicted cytoplasmic fragment of EssB, Ser2 to Asp214) (domain or fragment)", "values": [
      {"measurement": "stoichiometry N", "setting": "[6]", "result": 2},
      {"measurement": "stoichiometry N", "setting": "[7]", "result": 2},
      {"measurement": "percent monomeric", "setting": "[8]", "result": "> 10", "unit": "%"}
    ]},
    {"substance": "EssB-N D54C (cysteine-free template C48S, C108S, C171S), MTSSL spin-labelled (domain or fragment)", "values": [
      {"measurement": "stoichiometry N", "setting": "[9]", "result": 2}
    ]},
    {"substance": "EssB-N D54C (cysteine-free template C48S, C108S, C171S), before MTSSL labelling (domain or fragment)", "values": [
      {"measurement": "stoichiometry N", "setting": "[10]", "result": 2}
    ]},
    {"substance": "EssB^Δ (membrane-bound EssB truncated by 31 C-terminal residues) (domain or fragment)", "values": [
      {"measurement": "stoichiometry N", "setting": "[11]", "result": 2}
    ]},
    {"substance": "EssB^Δ D54C (cysteine-free template C48S, C108S, C171S), MTSSL spin-labelled (domain or fragment)", "values": [
      {"measurement": "stoichiometry N", "setting": "[12]", "result": 2}
    ]},
    {"substance": "EssB^Δ E59C (cysteine-free template C48S, C108S, C171S), MTSSL spin-labelled (domain or fragment)", "values": [
      {"measurement": "stoichiometry N", "setting": "[13]", "result": 2}
    ]},
    {"substance": "EssB^Δ E139C (cysteine-free template C48S, C108S, C171S), MTSSL spin-labelled (domain or fragment)", "values": [
      {"measurement": "stoichiometry N", "setting": "[14]", "result": 2}
    ]},
    {"substance": "EssB^Δ E197C (cysteine-free template C48S, C108S, C171S), MTSSL spin-labelled (domain or fragment)", "values": [
      {"measurement": "stoichiometry N", "setting": "[15]", "result": 2}
    ]},
    {"substance": "EssB^Δ E273C (cysteine-free template C48S, C108S, C171S), MTSSL spin-labelled (domain or fragment)", "values": [
      {"measurement": "stoichiometry N", "setting": "[16]", "result": 2}
    ]},
    {"substance": "EssB^Δ N115C (cysteine-free template C48S, C108S, C171S), MTSSL spin-labelled (domain or fragment)", "values": [
      {"measurement": "stoichiometry N", "setting": "[17]", "result": 2}
    ]},
    {"substance": "EssB^Δ R86C (cysteine-free template C48S, C108S, C171S), MTSSL spin-labelled (domain or fragment)", "values": [
      {"measurement": "stoichiometry N", "setting": "[18]", "result": 2}
    ]},
    {"substance": "EssB^Δ S93C (cysteine-free template C48S, C108S, C171S), MTSSL spin-labelled (domain or fragment)", "values": [
      {"measurement": "stoichiometry N", "setting": "[19]", "result": 2}
    ]}
  ]
}
